The values below come from publication PMC2935290.

The labels stand for the following.
B1: … A6P (peptide)
peptide: EKKYFPATQFEPLAA
B2: … Q9C (peptide)
peptide: EKKYFAATCFEPLAA
B3: … A6F (peptide)
peptide: EKKYFFATQFEPLAA
B4: … Y4Q (peptide)
peptide: EKKQFAATQFEPLAA
B5: … T8D (peptide)
peptide: EKKYFAADQFEPLAA
B6: … Y4A (peptide)
peptide: EKKAFAATQFEPLAA
B7: … Q9R (peptide)
peptide: EKKYFAATRFEPLAA
B8: … Y4D (peptide)
peptide: EKKDFAATQFEPLAA
B9: … A6T (peptide)
peptide: EKKYFTATQFEPLAA
B10: … T8N (peptide)
peptide: EKKYFAANQFEPLAA
B11: … A6Y (peptide)
peptide: EKKYFYATQFEPLAA
B12: … Q9P (peptide)
peptide: EKKYFAATPFEPLAA
B13: … Q9H (peptide)
peptide: EKKYFAATHFEPLAA
B14: … A6I (peptide)
peptide: EKKYFIATQFEPLAA
B15: … E11I (peptide)
peptide: EKKYFAATQFIPLAA
B16: … A6C (peptide)
peptide: EKKYFCATQFEPLAA
B17: … A6E (peptide)
peptide: EKKYFEATQFEPLAA
B18: … A6D (peptide)
peptide: EKKYFDATQFEPLAA
B19: … E11L (peptide)
peptide: EKKYFAATQFLPLAA
B20: … Q9S (peptide)
peptide: EKKYFAATSFEPLAA
B21: … Q9K (peptide)
peptide: EKKYFAATKFEPLAA
B22: … Q9F (peptide)
peptide: EKKYFAATFFEPLAA
B23: … E11W (peptide)
peptide: EKKYFAATQFWPLAA
B24: … T8Y (peptide)
peptide: EKKYFAAYQFEPLAA
B25: … E11V (peptide)
peptide: EKKYFAATQFVPLAA
B26: … Q9A (peptide)
peptide: EKKYFAATAFEPLAA
B27: … E11N (peptide)
peptide: EKKYFAATQFNPLAA
B28: … T8W (peptide)
peptide: EKKYFAAWQFEPLAA
B29: … E11Q (peptide)
peptide: EKKYFAATQFQPLAA
B30: … E11R (peptide)
peptide: EKKYFAATQFRPLAA
B31: … Q9V (peptide)
peptide: EKKYFAATVFEPLAA
B32: … A6K (peptide)
peptide: EKKYFKATQFEPLAA

In one assay the target is HLA-DPB1*0101 (human (endogenous in VAVY)). Kind of assay: radioligand binding.
With B1, the other turned out to be 0.18.

B2 gave an other of 1.8.

In the case of B3, the other was determined as 2.1.

Consider B4, for which the other was 1.

For the molecule B5, the other was 0.2.

On to B6, for which the other was 0.066.

B7 came in with an other of 1.8.

B8 returned an other of 2.

B9 had an other of 2.1.

The molecule B10 showed an other of 3.4.

B11 gave an other of 6.

B12 came in with an other of 1.

B13 registered an other of 1.

Another assay deals with HLA-DPB1*0201 (human (endogenous in JY)). Kind of assay: radioligand binding.
With B14, the other stood at 0.89.

The molecule B4 registered an other of 1.8.

With B6, the other amounted to 0.2.

B9 gave an other of 1.

As for B15, the other was determined as 1.8.

B16 showed an other of 0.38.

B17: the other was 0.41.

In turn, B18 displayed an other of 0.36.

As for B19, the other turned out to be 2.

As for B20, the other amounted to 2.

A further assay addresses HLA-DPB1*0501 (human (endogenous in HO301)). The experiment in a line: radioligand binding.
The molecule B21 had an other of 0.95.

As for B22, the other was found to be 13.

B23 displayed an other of 0.13.

Molecule B24 showed an other of 0.2.

In turn, B25 had an other of 2.

With B26, the other is 1.

Regarding B27, the other was determined as 0.36.

On to B28, for which the other came to 0.13.

B29 yielded an other of 1.

For the molecule B30, the other amounted to 1.

The molecule B15 showed an other of 2.1.

B11: the other is 2.1.

Turning to B18, the other was found to be 0.13.

The molecule B31 registered an other of 3.4.

B32 showed an other of 1.8.
